In patent US20210139548A1 (published 2021):
*1 amine or outer side, *2 acyl side, *3 side chain or, on linkers, in order; H or OH if unused. Side-chain parts run from the residue outwards. The star is where a group is joined. C18 diacid = O=C(O)CCCCCCCCCCCCCCCCC(=O)*; γGlu = O=C(O)[C@H](CCC(=O)[*:2])N[*:1]; Isovaleryl = CC(C)CC(=O)*; AEEA = NCCOCCOCC(=O)O

T1: human neuropeptide Y2 receptor (human, UniProt P49146 1-381)
T1 construct: whole, on cells; also called hNPY2 receptor; hNPY2-R
T1 sequence (looked up): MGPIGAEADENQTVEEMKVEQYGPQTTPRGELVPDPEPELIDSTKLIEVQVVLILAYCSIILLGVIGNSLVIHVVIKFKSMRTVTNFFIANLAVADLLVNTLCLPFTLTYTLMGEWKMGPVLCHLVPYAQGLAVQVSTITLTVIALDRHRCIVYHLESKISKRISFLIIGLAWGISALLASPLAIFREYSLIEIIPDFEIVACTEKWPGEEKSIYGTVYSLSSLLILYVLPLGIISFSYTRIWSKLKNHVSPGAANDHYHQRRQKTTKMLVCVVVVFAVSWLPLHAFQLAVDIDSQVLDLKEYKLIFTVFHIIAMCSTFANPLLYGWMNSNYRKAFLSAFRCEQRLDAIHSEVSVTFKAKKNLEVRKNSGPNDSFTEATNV


Biological target: T1, human neuropeptide Y2 receptor
Assay: radioligand competition (125I-PYY(1-36)), hNPY2R membranes
Summary of the method: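 Commercial human Y2 receptor membranes (0.5 μg protein/well) were incubated with peptide for 2 h at room temperature in 50 mM HEPES, 5 mM MgCl₂, 1 mM CaCl₂, pH 7.4, with 0.2% ovalbumin. Bound radioligand was separated on PEI-soaked GF/C filters and counted by scintillation, and IC₅₀ came from nonlinear sigmoidal regression.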

Row | Binder | Ki
1 | Isovaleryl-APEK([AEEA-AEEA-γGlu-C18 diacid])PEADASPEELQRYEVSLRHYYNWLTRQRY-NH2 (SMILES CC(C)CC(=O)N[C@@H](C)C(=O)N1CCC[C@H]1C(=O)N[C@@H](CCC(=O)O)C(=O)N[C@@H](CCCCNC(=O)COCCOCCNC(=O)COCCOCCNC(=O)CC[C@H](NC(=O)CCCCCCCCCCCCCCCCC(=O)O)C(=O)O)C(=O)N1CCC[C@H]1C(=O)N[C@@H](CCC(=O)O)C(=O)N[C@@H](C)C(=O)N[C@@H](CC(=O)O)C(=O)N[C@@H](C)C(=O)N[C@@H](CO)C(=O)N1CCC[C@H]1C(=O)N[C@@H](CCC(=O)O)C(=O)N[C@@H](CCC(=O)O)C(=O)N[C@@H](CC(C)C)C(=O)N[C@@H](CCC(N)=O)C(=O)N[C@@H](CCCNC(=N)N)C(=O)N[C@@H](Cc1ccc(O)cc1)C(=O)N[C@@H](CCC(=O)O)C(=O)N[C@H](C(=O)N[C@@H](CO)C(=O)N[C@@H](CC(C)C)C(=O)N[C@@H](CCCNC(=N)N)C(=O)N[C@@H](Cc1c[nH]cn1)C(=O)N[C@@H](Cc1ccc(O)cc1)C(=O)N[C@@H](Cc1ccc(O)cc1)C(=O)N[C@@H](CC(N)=O)C(=O)N[C@@H](Cc1c[nH]c2ccccc12)C(=O)N[C@@H](CC(C)C)C(=O)N[C@H](C(=O)N[C@@H](CCCNC(=N)N)C(=O)N[C@@H](CCC(N)=O)C(=O)N[C@@H](CCCNC(=N)N)C(=O)N[C@@H](Cc1ccc(O)cc1)C(N)=O)[C@@H](C)O)C(C)C) [Compound 86] | 1.19 nM
2 | Isovaleryl-APEK([AEEA-AEEA-γGlu-C18 diacid])PEEDSSPAELQRYYVSLRHYYNWLTRQRY-NH2 (SMILES CC(C)CC(=O)N[C@@H](C)C(=O)N1CCC[C@H]1C(=O)N[C@@H](CCC(=O)O)C(=O)N[C@@H](CCCCNC(=O)COCCOCCNC(=O)COCCOCCNC(=O)CC[C@H](NC(=O)CCCCCCCCCCCCCCCCC(=O)O)C(=O)O)C(=O)N1CCC[C@H]1C(=O)N[C@@H](CCC(=O)O)C(=O)N[C@@H](CCC(=O)O)C(=O)N[C@@H](CC(=O)O)C(=O)N[C@@H](CO)C(=O)N[C@@H](CO)C(=O)N1CCC[C@H]1C(=O)N[C@@H](C)C(=O)N[C@@H](CCC(=O)O)C(=O)N[C@@H](CC(C)C)C(=O)N[C@@H](CCC(N)=O)C(=O)N[C@@H](CCCNC(=N)N)C(=O)N[C@@H](Cc1ccc(O)cc1)C(=O)N[C@@H](Cc1ccc(O)cc1)C(=O)N[C@H](C(=O)N[C@@H](CO)C(=O)N[C@@H](CC(C)C)C(=O)N[C@@H](CCCNC(=N)N)C(=O)N[C@@H](Cc1c[nH]cn1)C(=O)N[C@@H](Cc1ccc(O)cc1)C(=O)N[C@@H](Cc1ccc(O)cc1)C(=O)N[C@@H](CC(N)=O)C(=O)N[C@@H](Cc1c[nH]c2ccccc12)C(=O)N[C@@H](CC(C)C)C(=O)N[C@H](C(=O)N[C@@H](CCCNC(=N)N)C(=O)N[C@@H](CCC(N)=O)C(=O)N[C@@H](CCCNC(=N)N)C(=O)N[C@@H](Cc1ccc(O)cc1)C(N)=O)[C@@H](C)O)C(C)C) [Compound 87] | 1.97 nM
3 | Isovaleryl-APEK([AEEA-AEEA-γGlu-C18 diacid])PEEEAEPEELQRYYVSLRHYYNWLTRQRY-NH2 (SMILES CC(C)CC(=O)N[C@@H](C)C(=O)N1CCC[C@H]1C(=O)N[C@@H](CCC(=O)O)C(=O)N[C@@H](CCCCNC(=O)COCCOCCNC(=O)COCCOCCNC(=O)CC[C@H](NC(=O)CCCCCCCCCCCCCCCCC(=O)O)C(=O)O)C(=O)N1CCC[C@H]1C(=O)N[C@@H](CCC(=O)O)C(=O)N[C@@H](CCC(=O)O)C(=O)N[C@@H](CCC(=O)O)C(=O)N[C@@H](C)C(=O)N[C@@H](CCC(=O)O)C(=O)N1CCC[C@H]1C(=O)N[C@@H](CCC(=O)O)C(=O)N[C@@H](CCC(=O)O)C(=O)N[C@@H](CC(C)C)C(=O)N[C@@H](CCC(N)=O)C(=O)N[C@@H](CCCNC(=N)N)C(=O)N[C@@H](Cc1ccc(O)cc1)C(=O)N[C@@H](Cc1ccc(O)cc1)C(=O)N[C@H](C(=O)N[C@@H](CO)C(=O)N[C@@H](CC(C)C)C(=O)N[C@@H](CCCNC(=N)N)C(=O)N[C@@H](Cc1c[nH]cn1)C(=O)N[C@@H](Cc1ccc(O)cc1)C(=O)N[C@@H](Cc1ccc(O)cc1)C(=O)N[C@@H](CC(N)=O)C(=O)N[C@@H](Cc1c[nH]c2ccccc12)C(=O)N[C@@H](CC(C)C)C(=O)N[C@H](C(=O)N[C@@H](CCCNC(=N)N)C(=O)N[C@@H](CCC(N)=O)C(=O)N[C@@H](CCCNC(=N)N)C(=O)N[C@@H](Cc1ccc(O)cc1)C(N)=O)[C@@H](C)O)C(C)C) [Compound 89] | 9.61 nM

The next lines start with the values.

Row | Ki | Binder
4 | 1.57 nM | Isovaleryl-APEK([AEEA-AEEA-γGlu-C18 diacid])PEEDTSPEELQRYYVSLRHYYNWLTRQRY-NH2 (SMILES CC(C)CC(=O)N[C@@H](C)C(=O)N1CCC[C@H]1C(=O)N[C@@H](CCC(=O)O)C(=O)N[C@@H](CCCCNC(=O)COCCOCCNC(=O)COCCOCCNC(=O)CC[C@H](NC(=O)CCCCCCCCCCCCCCCCC(=O)O)C(=O)O)C(=O)N1CCC[C@H]1C(=O)N[C@@H](CCC(=O)O)C(=O)N[C@@H](CCC(=O)O)C(=O)N[C@@H](CC(=O)O)C(=O)N[C@H](C(=O)N[C@@H](CO)C(=O)N1CCC[C@H]1C(=O)N[C@@H](CCC(=O)O)C(=O)N[C@@H](CCC(=O)O)C(=O)N[C@@H](CC(C)C)C(=O)N[C@@H](CCC(N)=O)C(=O)N[C@@H](CCCNC(=N)N)C(=O)N[C@@H](Cc1ccc(O)cc1)C(=O)N[C@@H](Cc1ccc(O)cc1)C(=O)N[C@H](C(=O)N[C@@H](CO)C(=O)N[C@@H](CC(C)C)C(=O)N[C@@H](CCCNC(=N)N)C(=O)N[C@@H](Cc1c[nH]cn1)C(=O)N[C@@H](Cc1ccc(O)cc1)C(=O)N[C@@H](Cc1ccc(O)cc1)C(=O)N[C@@H](CC(N)=O)C(=O)N[C@@H](Cc1c[nH]c2ccccc12)C(=O)N[C@@H](CC(C)C)C(=O)N[C@H](C(=O)N[C@@H](CCCNC(=N)N)C(=O)N[C@@H](CCC(N)=O)C(=O)N[C@@H](CCCNC(=N)N)C(=O)N[C@@H](Cc1ccc(O)cc1)C(N)=O)[C@@H](C)O)C(C)C)[C@@H](C)O) [Compound 92]
5 | 1.6 nM | Isovaleryl-APEK([AEEA-AEEA-γGlu-C18 diacid])PEEDASPEELQRYEVSLRHYYNWLTRQRY-NH2 (SMILES CC(C)CC(=O)N[C@@H](C)C(=O)N1CCC[C@H]1C(=O)N[C@@H](CCC(=O)O)C(=O)N[C@@H](CCCCNC(=O)COCCOCCNC(=O)COCCOCCNC(=O)CC[C@H](NC(=O)CCCCCCCCCCCCCCCCC(=O)O)C(=O)O)C(=O)N1CCC[C@H]1C(=O)N[C@@H](CCC(=O)O)C(=O)N[C@@H](CCC(=O)O)C(=O)N[C@@H](CC(=O)O)C(=O)N[C@@H](C)C(=O)N[C@@H](CO)C(=O)N1CCC[C@H]1C(=O)N[C@@H](CCC(=O)O)C(=O)N[C@@H](CCC(=O)O)C(=O)N[C@@H](CC(C)C)C(=O)N[C@@H](CCC(N)=O)C(=O)N[C@@H](CCCNC(=N)N)C(=O)N[C@@H](Cc1ccc(O)cc1)C(=O)N[C@@H](CCC(=O)O)C(=O)N[C@H](C(=O)N[C@@H](CO)C(=O)N[C@@H](CC(C)C)C(=O)N[C@@H](CCCNC(=N)N)C(=O)N[C@@H](Cc1c[nH]cn1)C(=O)N[C@@H](Cc1ccc(O)cc1)C(=O)N[C@@H](Cc1ccc(O)cc1)C(=O)N[C@@H](CC(N)=O)C(=O)N[C@@H](Cc1c[nH]c2ccccc12)C(=O)N[C@@H](CC(C)C)C(=O)N[C@H](C(=O)N[C@@H](CCCNC(=N)N)C(=O)N[C@@H](CCC(N)=O)C(=O)N[C@@H](CCCNC(=N)N)C(=O)N[C@@H](Cc1ccc(O)cc1)C(N)=O)[C@@H](C)O)C(C)C) [Compound 90]
6 | 2.07 nM | Isovaleryl-APEK([AEEA-AEEA-γGlu-C18 diacid])PEEDASPEETQRYYVELRHYYNWLTRQRY-NH2 (SMILES CC(C)CC(=O)N[C@@H](C)C(=O)N1CCC[C@H]1C(=O)N[C@@H](CCC(=O)O)C(=O)N[C@@H](CCCCNC(=O)COCCOCCNC(=O)COCCOCCNC(=O)CC[C@H](NC(=O)CCCCCCCCCCCCCCCCC(=O)O)C(=O)O)C(=O)N1CCC[C@H]1C(=O)N[C@@H](CCC(=O)O)C(=O)N[C@@H](CCC(=O)O)C(=O)N[C@@H](CC(=O)O)C(=O)N[C@@H](C)C(=O)N[C@@H](CO)C(=O)N1CCC[C@H]1C(=O)N[C@@H](CCC(=O)O)C(=O)N[C@@H](CCC(=O)O)C(=O)N[C@H](C(=O)N[C@@H](CCC(N)=O)C(=O)N[C@@H](CCCNC(=N)N)C(=O)N[C@@H](Cc1ccc(O)cc1)C(=O)N[C@@H](Cc1ccc(O)cc1)C(=O)N[C@H](C(=O)N[C@@H](CCC(=O)O)C(=O)N[C@@H](CC(C)C)C(=O)N[C@@H](CCCNC(=N)N)C(=O)N[C@@H](Cc1c[nH]cn1)C(=O)N[C@@H](Cc1ccc(O)cc1)C(=O)N[C@@H](Cc1ccc(O)cc1)C(=O)N[C@@H](CC(N)=O)C(=O)N[C@@H](Cc1c[nH]c2ccccc12)C(=O)N[C@@H](CC(C)C)C(=O)N[C@H](C(=O)N[C@@H](CCCNC(=N)N)C(=O)N[C@@H](CCC(N)=O)C(=O)N[C@@H](CCCNC(=N)N)C(=O)N[C@@H](Cc1ccc(O)cc1)C(N)=O)[C@@H](C)O)C(C)C)[C@@H](C)O) [Compound 94]
